The target of the assay is T1, [4Fe–4S]-TtuA (tRNA-thiolation enzyme TtuA from Thermus thermophilus HB27, reconstituted with a [4Fe–4S] … (Thermus thermophilus (HB27 strain), UniProt Q72LF3 1-321).
T1 construct: TtuA, tRNA-thiolation enzyme, Thermus thermophilus HB27; Carries a [4Fe–4S] cluster with the unique (non-cysteine-chelated) Fe; same polypeptide as m2, only the cofactor differs; also called TthTtuA; reconstituted TtuA; source: [4Fe–4S] reconstituted with DTT, FeCl3 and Na2S
T1 sequence (looked up): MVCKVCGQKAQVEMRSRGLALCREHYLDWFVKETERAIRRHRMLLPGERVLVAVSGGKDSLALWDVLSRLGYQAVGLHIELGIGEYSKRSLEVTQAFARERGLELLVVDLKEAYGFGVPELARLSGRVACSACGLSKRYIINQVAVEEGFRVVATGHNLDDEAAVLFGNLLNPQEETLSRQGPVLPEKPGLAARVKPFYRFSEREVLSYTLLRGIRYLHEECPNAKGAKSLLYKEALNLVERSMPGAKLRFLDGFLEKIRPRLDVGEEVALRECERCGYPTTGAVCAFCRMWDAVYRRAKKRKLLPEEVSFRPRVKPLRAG
In words: EPR spectroscopy; TtuA mixed with TtuB–COSH to a final concentration of 0.5 mM, 25 °C for 5 min, strictly anaerobic; then 5-fold molar excess dithionite, 25 °C for 10 min, frozen; CW X-band EPR (~9.59 GHz) at 12 K for [4Fe–4S]1+ and 40 K for [3Fe–4S]1+; reads the Fe–S cluster only. The note with it: both partners purified.

B1: TtuB–COSH (sulfur donor protein TtuB from Thermus thermophilus HB27 with a C-terminal thiocarboxylate) (natural protein, Thermus thermophilus (HB27 strain), UniProt Q72LF4 1-65, looked up)
chain: MRVVLRLPERKEVEVKGNRPLREVLEELGLNPETVVAVRGEELLTLEDEVREEDTLEVLSAISGG
modifications: not fully specified (C-terminus)
notes: TtuB, sulfur donor (sulfur carrier) protein, Thermus thermophilus HB27; source: E. coli B834 (DE3), pTYB1, purified on chitin resin; intein cleaved with 50 mM ammonium sulfide; not shown: intein, C-terminal, cleaved
With B1, the binding result is “binds”.

Values taken from publication PMC9821441, “Quick and Spontaneous Transformation between [3Fe–4S] and [4Fe–4S] Iron–Sulfur Clusters in the tRNA-Thiolation Enzyme TtuA” (International Journal of Molecular Sciences, 2023).
